Experiments:
[1] = target: SARS-CoV-2 S2-mFc (SARS-CoV-2, original strain, UniProt P0DTC2); experiment: flow cytometry on cells
[2] = target: SARS-CoV-2 Nucleocapsid (SARS-CoV-2, UniProt P0DTC9); experiment: ELISA
[3] = target: SARS-CoV-2 RBD-mFc (SARS-CoV-2, original strain, UniProt P0DTC2); experiment: flow cytometry on cells

| Binder | binding result [1] | other results |
| --- | --- | --- |
| mAb-80, displayed on nPnP hybridoma cells (single-ORF linker format) (antibody, V domains shown) VH: EVQLVESGGGLVQPGGSLRLSCAASGFTFSSYWMHWVRQAPGKGLVWVSRINSDERNTRYADSVRGRFTISRDNAKNTLSLQMNSLRVDDTAVYYCARGGAAISYLYYYYGMDVWGQGTTVTVSS VL: not shown | binds | – |
| mAb-78, displayed on nPnP hybridoma cells (single-ORF linker format) (antibody, V domains shown) VH: QVQLVESGGGVVQPGRSLTLSCAVSGFSFNNYGMHWVRQAPGKGLEWVSFISYEGSKRYYMDSLKGRFTISRDSSKNEVYLQMNRLTPEDTAVYYCAKSRAYFHFSAGRGVFDYWGRGALVTVSS VL: DMQMTQSPSSLSASVGDRVTITCQASQDIGTYLNWYRHKPGEAPKLLIYHASNLETGVPSRFSGSGSGTDFSFTISSLQPEDIGTYYCQQYDDLPVFAFGPGTKVDLK | binds | – |
| CR3022, secreted by nPnP hybridoma cells (single-ORF linker format), supernatant (antibody, V domains shown) VH: QMQLVQSGTEVKKPGESLKISCKGSGYGFITYWIGWVRQMPGKGLEWMGIIYPGDSETRYSPSFQGQVTISADKSINTAYLQWSSLKASDTAIYYCAGGSGISTPMDVWGQGTTVTVSS VL: not shown | – | binding result [2]: no binding |
| mAb-115, displayed on nPnP hybridoma cells (single-ORF linker format) (antibody, V domains shown) VH: EVQVVESGGGLVKPGGSLRLSCSVSGTTLADAWLNWVRQAPGKGLEWVGRIKSKPDVGTTEYAAPVKGRFIISRDDSGNSFFLQMTDLKPEDTAVYYCAARWEMQLWLRLFDFWGPGALVTVSS VL: EIVVTQSPATLSVSAGERANLSCRTSQSISRDLAWYQQKPGQAPRLLIYGVFSRATGIPARFSGSGSGTEFTLTISSLQSEDFAVYYCQQYNKWWTFGQGTKVEIK | binds | – |
| mAb-111, displayed on nPnP hybridoma cells (single-ORF linker format) (antibody, V domains shown) VH: DVQLLESGGGLVQPGGSRRLSCAASGFTFSNHAMSWVRQAPGKGLEWVSSISGSGGSTDYGDSVKGRFIVSRDNPRNTLYLDMNNLRTQDTAVYYCAKDRTFFTDSMLESWGEGTLVTVSS VL: DIQMTQSPSSLSASVGDRVTITCRASQTISKSLNWYQQRPGKAPKLLIYAASNLQSGFPSRFSGSGSGTDFTLTISSVQPGDFATYYCQQTYSTPVTFGQGTTLEIK | binds | – |
| mAb-76, displayed on nPnP hybridoma cells (single-ORF linker format) (antibody, V domains shown) VH: QVQLQQWGAGLLKPSETLSRTCGVYGGSFSGFYWSWIRQPPGKGLEWIGEINQSGTTSYNPSLMSRVTVSVDTSKNQFSLKLNSVTAADTAVYYCARRRSSWFEAGVHWYFDLWGRGTLVTVSS VL: DIVMTQSPLSLAVTPGEPASISCRSSQSLLHSNGYNYLDWYLQKPGQSPQVLIYLGSNRASGVPDRFSGSGSGTDYTLKISRVEAEDAGVYYCMQALQTPTFGRGTKLEIK | – | binding result [3]: binds |
| mAb-56, displayed on nPnP hybridoma cells (single-ORF linker format) (antibody, V domains shown) VH: EVQLVESGGGLIQPGGSMRLSCAASGFSVGTTYMSWVRQAPGKGLEWVSVVFKGHDTYYRKSVKGRFTISRDSSKNTLYLQMSDLRAEDSAVYFCTNMVLTYDSGWYWLDYWGQGIRVTVSS VL: DIQMTQSPSPLSAFVGDMVTITCRASQSINNFLNWYQQKPGKAPRLLIYGASTLETGVPTRFSGSGSGTDFTFTISSLQPEDIATYYCQQYDNLPLTFGGGTKVEIK | – | binding result [3]: binds |

— article PMC8692065 (Cell Reports, 2021)
